Source: patent publication US7385023B1, “Cancer immunotherapy and diagnosis using cytochrome P450 1B1” (Trustees of Boston University, priority 2000, dated 2008)
Values belong to the molecule of their own block, whether it stands above or below them. Peptide text beside a SMILES is read from it.

Tests used:
T2 cells = assay: 51Cr release cytotoxicity assay, peptide-pulsed T2 cells; type: cell-based; details: for recognition by CYP239-specific CTL of target cells pulsed with heteroclitic peptide: CTL generated against wild type CYP239
[1] = test system: T cells from HLA-A2+ healthy donors; details: for healthy donors with peptide-specific T cells detected / expansion: n=8, day 10
[2] = test system: primary follicular lymphoma (FL) cells; assay: 51Cr release cytotoxicity assay, primary follicular lymphoma; type: cell-based, human; details: HLA-A2+ CYP1B1+ FL, CTL from healthy donors
Experimental: CYP1B1-specific CTLs were then evaluated for cytotoxicity against primary tumor tissue.

[3] = test system: HLA-A2+ ovarian carcinoma cell line 36M
[4] = test system: T cells from HLA-A2+ multiple myeloma patients; details: n=10
[5] = test system: HLA-A2+ primary ALL cells; assay: 51Cr release cytotoxicity assay, primary ALL; type: cell-based, human
Experimental: Peptides were pulsed onto TAP-deficient T2 cells, and the maximum binding and the stability over time were assessed by flow cytometry. […] Additional experiments were carried out to characterize these peptides, in particular, CYP190.

HLA-A*0201 = HLA-A*0201 (Homo sapiens, UniProt P04439, D140Y/D185E/D98H/E176V/E277Q/G131W/G231S/I119V/I121R/I166T/I218V/L300P/L318F/N151K/N90K/P208A/P217A/Q86G/Q94H/R138H/R169H/T345S); assay: HLA-A2/peptide complex stability on TAP-deficient T2 cells; type: binding
[6] = test system: CD8+ T cells of HLA-A2+ cancer patients; assay: Ex vivo generation of peptide-specific CTL from cancer patients; type: cell-based, human
Description: Similar to experiments described for healthy donors, we next attempted to generate CYP1B1-specific CTL from peripheral blood of cancer patients. […] Due to lower numbers of PBMC available, CYP246-specific CTL cultures were only initiated in patients 3 and 4. […] Because autologous tumor cells were not available from these patients, we tested the same FL samples described above as primary tumor targets. CYP239-specific CTL from patient 1 lysed both HLA-A2^+ FL samples but not the HLA-A2^− (18% vs. 0% at an E:T ration of 30:1).

[7] = test system: CD8+ T cells of healthy HLA-A2+ donors; assay: Ex vivo generation of peptide-specific CTL from healthy HLA-A2+ donors
[8] = target: T1, HLA-A*0201 on the surface of TAP-deficient T2 cells (human); assay: T2 cell HLA-A*0201 stabilisation assay, flow cytometry with FITC-BB7.2
T1 construct: detected with FITC-labeled mAb BB7.2; also called HLA-A2

[9] = target: T1, HLA-A*0201 on the surface of …; assay: TAP-deficient T2 cell assay, flow cytometry
[10] = target: T1, HLA-A*0201 on the surface of …; assay: T2 cell assay of HLA-A*0201/peptide complex stability, flow cytometry

Molecule: CSCC[C@H](NC(=O)[C@@H](NC(=O)[C@H](CC(=O)O)NC(=O)[C@@H](NC(=O)[C@H](CC(C)C)NC(=O)[C@@H](N)Cc1ccc(O)cc1)C(C)C)C(C)C)C(=O)N1CCC[C@H]1C(=O)N[C@@H](Cc1c[nH]c2ccccc12)C(=O)N[C@H](C(=O)O)C(C)C [CYP239-19] (H-YLVDVMPWV-OH; N-terminus and C-terminus assumed)
- recognition by CYP239-specific CTL of target cells pulsed with heteroclitic peptide (T2 cells): equally well

Molecule: CSCC[C@H](NC(=O)[C@@H](NC(=O)[C@H](CC(=O)O)NC(=O)[C@H](Cc1ccc(O)cc1)NC(=O)[C@H](CC(C)C)NC(=O)[C@@H](N)Cc1ccc(O)cc1)C(C)C)C(=O)N1CCC[C@H]1C(=O)N[C@@H](Cc1c[nH]c2ccccc12)C(=O)N[C@H](C(=O)O)C(C)C [CYP239-139] (H-YLYDVMPWV-OH; N-terminus and C-terminus assumed)
- recognition by CYP239-specific CTL of target cells pulsed with heteroclitic peptide (T2 cells): do not recognize

Molecule: CSCC[C@H](NC(=O)[C@@H](NC(=O)[C@H](CC(=O)O)NC(=O)[C@@H](NC(=O)[C@H](CC(C)C)NC(=O)[C@@H](N)CO)C(C)C)C(C)C)C(=O)N1CCC[C@H]1C(=O)N[C@@H](Cc1c[nH]c2ccccc12)C(=O)N[C@@H](CC(C)C)C(=O)O [CYP239] (H-SLVDVMPWL-OH)
- healthy donors with peptide-specific T cells detected / expansion [1]: No expansion
- cytotoxicity for HLA-A2+ FL by peptide-specific CTL [2]: cytotoxic
- cytotoxicity against 36M by peptide-specific CTL [3]: specific cytotoxicity
- patients with reactive T cells >0.05% on day 10 [4]: 4

Molecule: CC(C)C[C@H](NC(=O)[C@@H](N)Cc1c[nH]c2ccccc12)C(=O)N[C@@H](CCC(N)=O)C(=O)N[C@@H](Cc1ccc(O)cc1)C(=O)N[C@@H](Cc1ccccc1)C(=O)N1CCC[C@H]1C(=O)N[C@@H](CC(N)=O)C(=O)N1CCC[C@H]1C(=O)N[C@H](C(=O)O)C(C)C [CYP246] (H-WLQYFPNPV-OH; N-terminus and C-terminus assumed)
- highest level of peptide-specific T cells in one healthy donor ([1]; day 10): 0.5%
- healthy donors with peptide-specific T cells detected / expansion [1]: 2
- cytotoxicity for HLA-A2+ FL by peptide-specific CTL [2]: cytotoxic
- cytotoxicity against 36M by peptide-specific CTL [3]: specific cytotoxicity
- patients with reactive T cells >0.05% on day 10 [4]: 5

- HLA-A2/peptide complex stability (HLA-A*0201): longest half-life on the cell surface
- time after peptide withdrawal at which peptide/A2 complexes can be detected (HLA-A*0201): ≥ 24 h
Molecule: FLDPRPLTV [CYP190]
- lysis of peptide-pulsed T2 cells by peptide-specific CTL (T2 cells; CTL from healthy donors): can lyse
- lysis of HLA-A2+ primary ALL cells by peptide-specific CTL [5]: can lyse
- generation of peptide-specific CTL from cancer patients [6]: can be generated from HLA-A2^+ cancer patients
- generation of peptide-specific CTL from normal donors [7]: can be generated from normal HLA-A2^+ donors

- Binding affinity [FI] (fluorescence index) [8]: 3.4
Molecule: WLQYFPNPV [CYP246 peptide from cytochrome P450 1B1 (WLQYFPNPV)]

- binding result [9]: binds
Molecule: FLDPRPLTV [CYP190 peptide from cytochrome P450 1B1 (FLDPRPLTV)]

- Binding affinity [FI] (fluorescence index) [8]: 3.8
- T2 assay result at 0 h post-pulsing [10]: 1.91
- T2 assay result at 2 h post-pulsing [10]: 1.37
- T2 assay result at 4 h post-pulsing [10]: 0.78
- T2 assay result at 6 h post-pulsing [10]: 0.58
- T2 assay result at 24 h post-pulsing [10]: 0.12
B1: CYP239 peptide from cytochrome P450 1B1 (SLVDVMPWL) (peptide)
peptide: SLVDVMPWL
notes: Synthetic peptide bought from Sigma Genosys

- T2 assay result at 0 h post-pulsing [10]: 2
- T2 assay result at 2 h post-pulsing [10]: 1.51
- T2 assay result at 4 h post-pulsing [10]: 1.24
- T2 assay result at 6 h post-pulsing [10]: 1.16
- T2 assay result at 24 h post-pulsing [10]: 0.73
B2: CYP239-139 heteroclitic peptide (YLYDVMPWV) (peptide)
peptide: YLYDVMPWV
notes: Designed variant of CYP239 changed at positions 1, 3 and 9

- T2 assay result at 0 h post-pulsing [10]: 2.16
- T2 assay result at 2 h post-pulsing [10]: 1.57
- T2 assay result at 4 h post-pulsing [10]: 1.31
- T2 assay result at 6 h post-pulsing [10]: 1.13
- T2 assay result at 24 h post-pulsing [10]: 0.72
B3: CYP239-19 heteroclitic peptide (YLVDVMPWV) (peptide)
peptide: YLVDVMPWV
notes: Designed variant of CYP239 changed at positions 1 and 9
